Source: patent US20060263802A1 (CRUCELL HOLLAND B V, published 2006)

Tests used:
Assay in all cases: PEPSCAN ELISA, looped peptide, antibody 10 µg/ml
[1] = target: looped/cyclic peptide … (rabies virus strain ERA)
[2] = target: looped/cyclic peptide … (rabies virus strain ERA); remark: listed apart in the source
[3] = target: looped/cyclic peptide … (rabies virus strain ERA); remark: listed apart in the source
[4] = target: looped/cyclic peptide … (rabies virus strain ERA); remark: listed apart in the source
[5] = target: looped/cyclic peptide … (rabies virus strain ERA); remark: listed apart in the source
[6] = target: looped/cyclic peptide … (rabies virus strain ERA); remark: listed apart in the source
[7] = target: looped/cyclic peptide … (rabies virus strain ERA); remark: listed apart in the source
[8] = target: looped/cyclic peptide … (rabies virus strain ERA); remark: listed apart in the source
[9] = target: looped/cyclic peptide … (rabies virus strain ERA); remark: listed apart in the source
[10] = target: looped/cyclic peptide … (rabies virus strain ERA); remark: listed apart in the source
[11] = target: looped/cyclic peptide … (rabies virus strain ERA); remark: listed apart in the source
[12] = target: looped/cyclic peptide … (rabies virus strain ERA); remark: listed apart in the source
[13] = target: looped/cyclic peptide … (rabies virus strain ERA); remark: listed apart in the source
[14] = target: looped/cyclic peptide … (rabies virus strain ERA); remark: listed apart in the source
[15] = target: looped/cyclic peptide … (rabies virus strain ERA); remark: listed apart in the source
[16] = target: looped/cyclic peptide … (rabies virus strain ERA); remark: listed apart in the source
[17] = target: looped/cyclic peptide … (rabies virus strain ERA); remark: listed apart in the source
[18] = target: looped/cyclic peptide … (rabies virus strain ERA); remark: listed apart in the source
[19] = target: looped/cyclic peptide … (rabies virus strain ERA); remark: listed apart in the source
[20] = target: looped/cyclic peptide … (rabies virus strain ERA); remark: listed apart in the source
[21] = target: looped/cyclic peptide … (rabies virus strain ERA); remark: listed apart in the source
[22] = target: looped/cyclic peptide … (rabies virus strain ERA); remark: listed apart in the source
[23] = target: looped/cyclic peptide … (rabies virus strain ERA); remark: listed apart in the source
[24] = target: looped/cyclic peptide … (rabies virus strain ERA); remark: listed apart in the source
[25] = target: looped/cyclic peptide … (rabies virus strain ERA); remark: listed apart in the source
[26] = target: looped/cyclic peptide … (rabies virus strain ERA); remark: listed apart in the source
[27] = target: looped/cyclic peptide … (rabies virus strain ERA); remark: listed apart in the source
[28] = target: looped/cyclic peptide … (rabies virus strain ERA); remark: listed apart in the source
[29] = target: looped/cyclic peptide … (rabies virus strain ERA); remark: listed apart in the source
[30] = target: looped/cyclic peptide … (rabies virus strain ERA); remark: listed apart in the source
[31] = target: looped/cyclic peptide … (rabies virus strain ERA); remark: listed apart in the source
[32] = target: looped/cyclic peptide … (rabies virus strain ERA); remark: listed apart in the source
[33] = target: looped/cyclic peptide … (rabies virus strain ERA); remark: listed apart in the source
[34] = target: looped/cyclic peptide … (rabies virus strain ERA); remark: listed apart in the source
[35] = target: looped/cyclic peptide … (rabies virus strain ERA); remark: listed apart in the source
[36] = target: looped/cyclic peptide … (rabies virus strain ERA); remark: listed apart in the source
[37] = target: looped/cyclic peptide … (rabies virus strain ERA); remark: listed apart in the source
[38] = target: looped/cyclic peptide … (rabies virus strain ERA); remark: listed apart in the source
[39] = target: looped/cyclic peptide … (rabies virus strain ERA); remark: listed apart in the source
[40] = target: looped/cyclic peptide … (rabies virus strain ERA); remark: listed apart in the source
[41] = target: looped/cyclic peptide … (rabies virus strain ERA); remark: listed apart in the source
[42] = target: looped/cyclic peptide … (rabies virus strain ERA); remark: listed apart in the source
[43] = target: looped/cyclic peptide … (rabies virus strain ERA); remark: listed apart in the source
[44] = target: looped/cyclic peptide … (rabies virus strain ERA); remark: listed apart in the source
[45] = target: looped/cyclic peptide … (rabies virus strain ERA); remark: listed apart in the source
[46] = target: looped/cyclic peptide … (rabies virus strain ERA); remark: listed apart in the source
[47] = target: looped/cyclic peptide … (rabies virus strain ERA); remark: listed apart in the source
[48] = target: looped/cyclic peptide … (rabies virus strain ERA); remark: listed apart in the source
[49] = target: looped/cyclic peptide … (rabies virus strain ERA); remark: listed apart in the source
[50] = target: looped/cyclic peptide … (rabies virus strain ERA); remark: listed apart in the source
[51] = target: looped/cyclic peptide … (rabies virus strain ERA); remark: listed apart in the source
[52] = target: looped/cyclic peptide … (rabies virus strain ERA); remark: listed apart in the source
[53] = target: looped/cyclic peptide … (rabies virus strain ERA); remark: listed apart in the source
[54] = target: looped/cyclic peptide … (rabies virus strain ERA); remark: listed apart in the source
[55] = target: looped/cyclic peptide DIHHLSCPNNLVVED (rabies virus strain ERA)
[56] = target: looped/cyclic peptide … (rabies virus strain ERA); remark: listed apart in the source
[57] = target: looped/cyclic peptide … (rabies virus strain ERA); remark: listed apart in the source
[58] = target: looped/cyclic peptide … (rabies virus strain ERA); remark: listed apart in the source
[59] = target: looped/cyclic peptide … (rabies virus strain ERA); remark: listed apart in the source
[60] = target: looped/cyclic peptide … (rabies virus strain ERA); remark: listed apart in the source

B1: human monoclonal antibody CRJA (antibody, V domains shown)
VH: EVQLLESGGGLVQPGGSLRLSCAASGFTFSNYAMSWVRQAPGKGLEWVSAISASGHSTYLADSVKGRFTISRDNSKNTLYLQMNSLRAEDTAVYYCAKDREVTMIVVLNGGFDYWGQGTRVTVSS
VL: EIVLTQSPATLSLSPGERATLACRASQTASRYLAWYQQKPGQAPRLLIYDTSNRATGIPARFSGSGSGTDFTLSISSLEPEDFAVYYCQQRFNWPWTFGQGTKVEFK
B1 was tested, and the OD value [1] was 71 OD, the OD value [2] was 71 OD and the OD value [3] was 136 OD. For the same binder, the OD value [4] was 87 OD, the OD value [5] was 54 OD and the OD value [6] was 41 OD. It also gave an OD value [7] of 100 OD, an OD value [8] of 62 OD and an OD value [9] of 88 OD. It also gave an OD value [10] of 46 OD, an OD value [11] of 90 OD and an OD value [12] of 96 OD. The OD value [13] was 78 OD, the OD value [14] was 83 OD and the OD value [15] was 72 OD. The OD value [16] was 113 OD, the OD value [17] was 78 OD and the OD value [18] was 84 OD. For the same binder, the OD value [19] was 83 OD, the OD value [20] was 86 OD and the OD value [21] was 72 OD. The OD value [22] was 123 OD, the OD value [23] was 78 OD and the OD value [24] was 96 OD. The OD value [25] was 66 OD, the OD value [26] was 90 OD and the OD value [27] was 108 OD. It also gave an OD value [28] of 96 OD, an OD value [29] of 86 OD and an OD value [30] of 58 OD. The OD value [31] was 113 OD, the OD value [32] was 92 OD and the OD value [33] was 117 OD. It also gave an OD value [34] of 96 OD, an OD value [35] of 96 OD and an OD value [36] of 96 OD. It also gave an OD value [37] of 104 OD, an OD value [38] of 87 OD and an OD value [39] of 86 OD. For the same binder, the OD value [40] was 96 OD, the OD value [41] was 125 OD and the OD value [42] was 51 OD. For the same binder, the OD value [43] was 79 OD, the OD value [44] was 58 OD and the OD value [45] was 69 OD. The OD value [46] was 93 OD, the OD value [47] was 62 OD and the OD value [48] was 38 OD. It also gave an OD value [49] of 55 OD, an OD value [50] of 86 OD and an OD value [51] of 112 OD. It also gave an OD value [52] of 104 OD, an OD value [53] of 83 OD and an OD value [54] of 55 OD. The OD value [55] was 62 OD, the OD value [56] was 86 OD and the OD value [57] was 82 OD. It also gave an OD value [58] of 151 OD, an OD value [59] of 90 OD and an OD value [60] of 96 OD.
